Series [1] is described as follows: Body weight reduction in lean mice. It is filed as in vivo, lean C57BL mice. Particulars: change from baseline day 1 to 7. The method, then:
In order to determine the in vivo potency of the FGF21 derivatives the effect on body weight was studied in lean C57BL mice after subcutaneous (s.c.) administration. It has previously been shown that the weight loss induced by FGF21 in lean mice is predictive of the effect in obese mice and therefore lean mice are considered a good screening model.
The compounds were administered s.c. 1 mg/kg either once (QD) or twice (BID) daily in 10 mM phosphate, 2% (w/vol) glycerol, 500ppm (=0.05%) polysorbate 80, pH=8.15, (2 ml/kg) for 7 days (n=7-8). The respective vehicle treated groups (control) were treated with 10 mM phosphate, 2% (w/vol) glycerol, 500ppm (=0.05%) polysorbate 80, pH=8.15, (2 ml/kg) s.c. twice daily for 7 days (n=6-8). Body weight was measured before dosing and again after 7 days treatment.

Series [2] addresses 3T3-L1 adipocytes (Mus musculus, UniProt P16092+Q99N32). The series can be described thus: Glucose uptake in 3T3-L1 adipocytes. It is filed as cell-based. Particulars: stimulated 20 hours, 3H-deoxy-glucose. As for the experimental part:
The C-terminal modified analogues were tested for their ability to increase glucose uptake in 3T3-L1 mouse adipocytes. The following assay was used for determining the biological activity, or potency, of FGF21 analogues and derivatives of the invention.
The in vitro potency may also be determined in an assay with mouse 3T3-L1 adipocytes by testing the FGF21 analogues and derivatives for their ability to increase glucose uptake into adipocytes. Differentiated 3T3-L1 adipocytes endogenously express FGFR1c and BKL. The 3T3-L1 cells are unresponsive to FGF21 until after differentiated as differentiation lead to expression of the co-receptor BKL. Activation of the FGFR1 receptor/BKL complex increase the expression of glucose transporter 1 (GLUT1) and therefore FGF21 agonists will lead to an increased amount of glucose taken into the adipocytes in a dose responsive manner.
Mouse 3T3-L1 fibroblasts (e.g. available from ATCC, catalogue no. CL-173) were maintained in basal medium (DMEM (4500 mg/I Glucose) with 10% Fetal Bovine Serum (FBS) and 1% Penicillin/Streptomycin). The cells are not allowed to reach confluence and should be passed (transferred to new vials) before reaching approx. 60% of confluency (by visual inspection).
For the glucose uptake assay, cells were 15.000 cells/well in a 96 well plate (BIOCOAT), and when they reached confluency (high density, with a view to have differentiated adipose cells made), the medium was changed from basal medium to basal medium containing Troglitazone, IBMX, Dexamethasone (commercially available from, e.g., Sigma) and human insulin (commercially available from, e.g., Novo Nordisk A/S).
The cells were used 7-9, days after initiation of differentiation. The cells were stimulated with increasing concentrations (0-300 nM) of the FGF21 analogues or derivatives of the invention for 20 hours in basal medium. Before addition of 3H-deoxy-glucose (in what follows: the tracer) the cells were washed in warm (approximately 37° C.) assay buffer (PBS with 1 mM MgCl2 and 2 mM CaCl2), HEPES and 0.1% Human serum albumin) and the cells were incubated with the tracer for 1 hour. This incubation was terminated by washing twice in ice cold assay buffer. The cells were lysed with Triton X-100 and lysates transferred to a 96 wells plate, microscint-40 (commercially available from, e.g., Perkin Elmer) was added and amount of tracer counted in a TOP-counter (e.g. a Packard top-counter from Perkin Elmer). The EC50 and Emax of the FGF21 compound in question were calculated. The results which are shown in tables 4-5 below indicate the EC50 (potency) and Emax (efficacy) of the FGF21 analogues and derivatives, respectively.

A short description of series [3]: Pharmacokinetic study in mice (i.v.). Particulars: terminal half-life, single intravenous dose of 20 mg/kg, lean C57bl mice.
Description: This was done in a pharmacokinetic (PK) study, where the terminal half-life of the analogue in question was determined. By terminal half-life is meant the time it takes to halve a certain plasma concentration in the terminal elimination phase.
The pharmacokinetic profile of FGF21 analogues was tested in normal lean C57b1 mice, n =2-3 (approximately 30 grams). FGF21 compounds were dosed as a single intravenous dose of 20 mg/kg (approximately 5 ml/kg).
The plasma levels of the FGF21 compounds were determined using Fibroblast Growth Factor-21 Human ELISA (available from BioVendor, catalogue no. RD191108200R). The PC based software, WnNonLin version 6.3 from Pharsight Corportion, Cary N.C., was used for the pharmacokinetic calculation.
For series [4], the target named is FGF receptor/BKL complex. The series can be described thus: FGF receptor potency in an Erk phosphorylation assay in HEK293 overexpressing human BKL. The conditions noted are these: HEK293/BKL cells, pERK after 12 minutes. It counts as cell-based. Summed up:
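pERK after 12 min analogue exposure at 37° C. was quantified by AlphaScreen SureFire in lysates of beta-klotho-transfected HEK293 cells. Assay medium was DMEM with 0.02% Tween20, run both without albumin and with 0.1% final HSA to probe albumin binding. Cells were starved 2 h in basal medium first. Absolute EC50 reported.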

A short description of series [5]: Pharmacokinetic study in mini pigs (i.v.). Particulars: terminal half-life, female Gottingen mini pigs.
Description: The purpose of this study was to determine the protraction in vivo of the FGF21 derivatives after i.v. administration to mini pigs and mice, i.e. the prolongation of their time in the body and thereby their time of action. This was done in a pharmacokinetic (PK) study, where the terminal half-life of the analogue in question was determined. By terminal half-life is meant the time it takes to halve a certain plasma concentration in the terminal elimination phase.
Female Gottingen mini pigs were obtained from Ellegaard Gottingen Minipigs (Dalmose, Denmark) approximately 7-14 months of age and weighing approximately 16-35 kg were used in the studies. The mini pigs were housed either individually (pigs with permanent catheters) or in a group and fed restrictedly once or twice daily with SDS mini pig diet (Special Diets Services, Essex, UK).
After at least 2 weeks of acclimatisation two permanent central venous catheters were implanted in vena cava caudalis or cranialis in each animal. The animals were allowed 1 week recovery after the surgery, and were then used for repeated pharmacokinetic studies with a suitable wash-out period between successive dosing.
Blood samples (for example 0.8 ml) were collected in EDTA (8 mM) coated tubes and then centrifuged at 4° C. and 1942G for 10 minutes. Blood samples were collected to adequately cover the full plasma concentration-time profile of the API. In example blood samples were collected at t=predose, 0.0833, 0.25, 0.5, 0.75, 1, 1.5, 2, 3, 4, 6, 8, 10, 24, 30, 48, 72, 96, 120, 144, 168, 192, 216, 240, 264 hours after dose.
Plasma was pipetted into Micronic tubes on dry ice, and kept at −20° C. until analysed for plasma concentration of the respective FGF-1 analogue using ELISA. Individual plasma concentration-time profiles were analyzed by a non-compartmental pharmacokinetic method in Phoenix v. 6.3 (Pharsight Inc., Mountain View, Calif., USA), or other relevant software for PK analysis, and the resulting terminal half-lives (harmonic mean) determined.
[6] abbreviates: presence of 0.1% HSA, read-out: EC50 (0.1% HSA).

Here are results for seven molecules from patent US20170182124A1, “FGF21 Derivatives and Uses Thereof” (Novo Nordisk A/S, priority 2014, published 2017).

Like-named read-outs stand apart in the source and are kept apart here. Marks after values point to notes of the source that are not given here.

Chain of FGF receptor/BKL complex (Q86Z14 whole entry, one chain of several): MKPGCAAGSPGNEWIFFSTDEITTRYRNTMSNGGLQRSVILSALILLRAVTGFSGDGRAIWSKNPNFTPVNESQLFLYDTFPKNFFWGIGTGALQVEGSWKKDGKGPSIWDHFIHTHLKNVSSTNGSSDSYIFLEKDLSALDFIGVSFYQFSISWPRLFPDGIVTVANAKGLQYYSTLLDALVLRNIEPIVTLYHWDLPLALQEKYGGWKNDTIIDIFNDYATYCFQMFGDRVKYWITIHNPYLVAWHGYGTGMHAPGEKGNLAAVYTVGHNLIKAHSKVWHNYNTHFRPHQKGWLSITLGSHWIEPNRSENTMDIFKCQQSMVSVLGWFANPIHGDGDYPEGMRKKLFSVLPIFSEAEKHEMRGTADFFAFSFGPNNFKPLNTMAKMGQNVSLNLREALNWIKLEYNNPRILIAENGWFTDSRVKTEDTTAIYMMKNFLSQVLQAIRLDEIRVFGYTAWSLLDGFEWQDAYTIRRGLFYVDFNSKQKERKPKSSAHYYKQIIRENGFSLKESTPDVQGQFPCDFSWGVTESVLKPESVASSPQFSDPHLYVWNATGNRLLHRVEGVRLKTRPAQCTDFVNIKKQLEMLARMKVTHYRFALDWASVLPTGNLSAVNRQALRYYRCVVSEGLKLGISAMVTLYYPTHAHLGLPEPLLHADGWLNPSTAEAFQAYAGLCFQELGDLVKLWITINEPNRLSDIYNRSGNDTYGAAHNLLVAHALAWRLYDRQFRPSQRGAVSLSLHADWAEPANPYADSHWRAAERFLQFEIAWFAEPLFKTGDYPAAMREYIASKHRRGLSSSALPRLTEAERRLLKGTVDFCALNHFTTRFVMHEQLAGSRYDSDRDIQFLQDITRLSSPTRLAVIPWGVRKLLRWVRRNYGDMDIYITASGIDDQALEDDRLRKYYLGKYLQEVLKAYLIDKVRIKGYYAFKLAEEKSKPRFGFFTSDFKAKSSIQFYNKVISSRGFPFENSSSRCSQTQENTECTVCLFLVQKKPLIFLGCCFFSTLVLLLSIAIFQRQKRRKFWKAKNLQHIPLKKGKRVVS
Chain of 3T3-L1 adipocytes (Q99N32 whole entry): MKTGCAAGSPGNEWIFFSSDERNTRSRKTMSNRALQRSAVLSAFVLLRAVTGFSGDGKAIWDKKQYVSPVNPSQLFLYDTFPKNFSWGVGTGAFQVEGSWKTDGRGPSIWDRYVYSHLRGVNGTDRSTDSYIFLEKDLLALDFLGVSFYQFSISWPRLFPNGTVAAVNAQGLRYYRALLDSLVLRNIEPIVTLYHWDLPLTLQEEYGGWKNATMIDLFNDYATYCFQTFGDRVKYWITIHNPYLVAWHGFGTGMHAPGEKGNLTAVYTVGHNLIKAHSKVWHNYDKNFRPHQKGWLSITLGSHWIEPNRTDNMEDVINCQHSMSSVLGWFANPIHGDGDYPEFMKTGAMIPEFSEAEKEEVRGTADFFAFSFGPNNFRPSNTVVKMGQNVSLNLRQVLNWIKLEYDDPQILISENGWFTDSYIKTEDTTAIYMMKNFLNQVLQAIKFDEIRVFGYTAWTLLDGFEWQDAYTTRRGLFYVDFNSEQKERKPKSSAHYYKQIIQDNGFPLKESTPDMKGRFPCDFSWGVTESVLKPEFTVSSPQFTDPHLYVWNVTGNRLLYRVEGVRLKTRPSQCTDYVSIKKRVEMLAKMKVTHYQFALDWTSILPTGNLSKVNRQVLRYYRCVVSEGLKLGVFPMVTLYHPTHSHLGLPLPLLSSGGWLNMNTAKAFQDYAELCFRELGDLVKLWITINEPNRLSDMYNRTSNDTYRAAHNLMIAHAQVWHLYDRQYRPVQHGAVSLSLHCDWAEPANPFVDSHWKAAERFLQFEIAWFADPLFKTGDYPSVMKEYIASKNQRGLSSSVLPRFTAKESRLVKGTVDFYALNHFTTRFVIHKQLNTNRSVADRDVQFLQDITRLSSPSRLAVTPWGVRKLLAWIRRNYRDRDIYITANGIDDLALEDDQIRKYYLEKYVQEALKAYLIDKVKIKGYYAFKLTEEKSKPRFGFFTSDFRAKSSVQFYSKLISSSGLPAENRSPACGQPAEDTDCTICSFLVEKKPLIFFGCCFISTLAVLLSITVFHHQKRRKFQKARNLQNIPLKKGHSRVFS
Chain of 3T3-L1 adipocytes (P16092 22-822): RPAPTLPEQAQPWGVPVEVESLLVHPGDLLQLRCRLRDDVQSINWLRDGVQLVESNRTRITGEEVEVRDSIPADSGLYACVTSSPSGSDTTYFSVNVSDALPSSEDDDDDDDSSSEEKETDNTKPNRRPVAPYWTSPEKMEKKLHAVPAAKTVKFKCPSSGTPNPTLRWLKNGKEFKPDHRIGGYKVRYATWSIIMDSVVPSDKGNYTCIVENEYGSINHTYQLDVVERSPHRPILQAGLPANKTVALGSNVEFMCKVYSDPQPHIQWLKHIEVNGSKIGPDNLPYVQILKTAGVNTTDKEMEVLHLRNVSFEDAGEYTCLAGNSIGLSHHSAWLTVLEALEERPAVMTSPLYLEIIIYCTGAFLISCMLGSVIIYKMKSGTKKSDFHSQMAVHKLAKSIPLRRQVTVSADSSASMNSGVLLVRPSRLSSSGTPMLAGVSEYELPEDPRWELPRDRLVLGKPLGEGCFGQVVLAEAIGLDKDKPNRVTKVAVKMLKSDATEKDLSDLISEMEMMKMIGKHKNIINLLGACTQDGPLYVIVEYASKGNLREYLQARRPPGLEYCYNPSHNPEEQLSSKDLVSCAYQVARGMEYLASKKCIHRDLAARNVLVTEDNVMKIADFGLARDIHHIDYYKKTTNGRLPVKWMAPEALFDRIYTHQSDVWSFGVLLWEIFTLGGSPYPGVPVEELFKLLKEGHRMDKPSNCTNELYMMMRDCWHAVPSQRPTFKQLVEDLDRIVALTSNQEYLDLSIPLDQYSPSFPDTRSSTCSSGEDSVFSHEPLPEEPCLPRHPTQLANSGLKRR

B1: S{Beta-180}-[2-[2-[[2-[2-[2-[[2-[2-[2-[[(4S)-4-carboxy-4-(11-carboxyundecanoyl-amino)butanoyl]amino]ethoxy]ethoxy]acetyl]amino]ethoxy]ethoxy]acetyl]amino]-ethylamino]-2-oxoethyl]-Ala[Gln121,Leu168,Cys … (protein)
chain: HPIPDSSPLLQFGGQVRQRYLYTDDAQQTEAHLEIREDGTVGGAADQSPESLLQLKALKPGVIQILGVKTSRFLCQRPDGALYGSLHFDPEACSFRELLLEDGYNVYQSEAHGLPLHLPGQKSPHRDPAPRGPARFLPLPGLPPALPEPPGILAPQPPDVGSSDPLSLVGPSQGRSPSYCS
For B1, the “Mean Δ body weight (%)” value in series [1] (s.c. 1 mg/kg BID for 7 days) is −2.04%. Further, the EC50 is 2.7 nM in series [2]; 7 nM in series [4] (absence of HSA, read-out: EC50); 4 nM in series [4] (setting [6]). The “Glucose uptake Emax” value in series [2] is 87%. For the same molecule, the Half-life mice in series [3] came out at 1 h.

B2: S{Beta-180}-[2-[2-[[2-[2-[2-[[2-[2-[2-[[(4S)-4-carboxy-4-(17-carboxyheptadecanoyl-amino)butanoyl]amino]ethoxy]ethoxy]acetyl]amino]ethoxy]ethoxy]acetyl]amino]-ethylamino]-2-oxoethyl]-Ala[Gln121,Leu168, … (protein)
chain: HPIPDSSPLLQFGGQVRQRYLYTDDAQQTEAHLEIREDGTVGGAADQSPESLLQLKALKPGVIQILGVKTSRFLCQRPDGALYGSLHFDPEACSFRELLLEDGYNVYQSEAHGLPLHLPGQKSPHRDPAPRGPARFLPLPGLPPALPEPPGILAPQPPDVGSSDPLSLVGPSQGRSPSYCS
Regarding B2, in series [1] (s.c. 1 mg/kg QD for 7 days), the “Mean Δ body weight (%)” value is −10.59*** %. The EC50 in series [2] is 32 nM; in series [4] (absence of HSA, read-out: EC50), 5 nM; in series [4] (setting [6]), 48 nM. Further, the “Glucose uptake Emax” value in series [2] was 109%. In addition, in series [5], the Half-life mini pigs came to 70 h. Further, the Half-life mice in series [3] is 12 h.

B3: S{Beta-181}-[2-[2-[[2-[2-[2-[[2-[2-[2-[[(4S)-4-carboxy-4-(15-carboxypentadecanoyl-amino)butanoyl]amino]ethoxy]ethoxy]acetyl]amino]ethoxy]ethoxy]acetyl]amino]-ethylamino]-2-oxoethyl]-Ala[Gln121,Leu168, … (protein)
chain: HPIPDSSPLLQFGGQVRQRYLYTDDAQQTEAHLEIREDGTVGGAADQSPESLLQLKALKPGVIQILGVKTSRFLCQRPDGALYGSLHFDPEACSFRELLLEDGYNVYQSEAHGLPLHLPGQKSPHRDPAPRGPARFLPLPGLPPALPEPPGILAPQPPDVGSSDPLSLVGPSQGRSPSYAC
With B3, in series [1] (s.c. 1 mg/kg QD for 7 days), the “Mean Δ body weight (%)” value amounted to 0.18%. The EC50 in series [2] worked out at 31 nM; in series [4] (absence of HSA, read-out: EC50), 55 nM; in series [4] (setting [6]) it was 72 nM. Besides, the “Glucose uptake Emax” value in series [2] was determined as 61%. In addition, the Half-life mini pigs in series [5] is 25 h. For the same molecule, the Half-life mice in series [3] amounted to 4 h.

B4: S{Beta-181}-[2-[2-[[2-[2-[2-[[2-[2-[2-[[(4S)-4-carboxy-4-(13-carboxytridecanoyl-amino)butanoyl]amino]ethoxy]ethoxy]acetyl]amino]ethoxy]ethoxy]acetyl]amino]-ethylamino]-2-oxoethyl]-Ala[Gln121,Leu168,Cy … (protein)
chain: HPIPDSSPLLQFGGQVRQRYLYTDDAQQTEAHLEIREDGTVGGAADQSPESLLQLKALKPGVIQILGVKTSRFLCQRPDGALYGSLHFDPEACSFRELLLEDGYNVYQSEAHGLPLHLPGQKSPHRDPAPRGPARFLPLPGLPPALPEPPGILAPQPPDVGSSDPLSLVGPSQGRSPSYAC
B4: the “Mean Δ body weight (%)” value in series [1] (s.c. 1 mg/kg BID for 7 days) is recorded as −0.94%. The EC50 worked out at 7.2 nM in series [2]; 58 nM in series [4] (absence of HSA, read-out: EC50); 41 nM in series [4] (setting [6]). Besides, the “Glucose uptake Emax” value in series [2] was 55%. Also, the Half-life mini pigs in series [5] was 2 h. For the same molecule, the Half-life mice in series [3] worked out at 3 h.

B5: S{Beta-180}-[2-[2-[[2-[2-[2-[[2-[2-[2-[[(4S)-4-carboxy-4-(15-carboxypentadecanoyl-amino)butanoyl]amino]ethoxy]ethoxy]acetyl]amino]ethoxy]ethoxy]acetyl]amino]-ethylamino]-2-oxoethyl]-Ala[Gln121,Leu168, … (protein)
chain: HPIPDSSPLLQFGGQVRQRYLYTDDAQQTEAHLEIREDGTVGGAADQSPESLLQLKALKPGVIQILGVKTSRFLCQRPDGALYGSLHFDPEACSFRELLLEDGYNVYQSEAHGLPLHLPGQKSPHRDPAPRGPARFLPLPGLPPALPEPPGILAPQPPDVGSSDPLSLVGPSQGRSPSYCS
Consider B5, for which the “Mean Δ body weight (%)” value in series [1] (s.c. 1 mg/kg QD for 7 days) is −4.48*** %. In addition, the concentration for a half-maximal effect (EC50) in series [2] was found to be 9.1 nM; in series [4] (absence of HSA, read-out: EC50), 4 nM; in series [4] (setting [6]) it was 6 nM. In addition, in series [2], the “Glucose uptake Emax” value is given as 98%. Moreover, the Half-life mini pigs in series [5] came out at 23 h. This molecule also gave a Half-life mice in series [3] of 3 h.

B6: S{Beta-180}-[2-[2-[[2-[2-[2-[[2-[2-[2-[[(4S)-4-carboxy-4-(13-carboxytridecanoyl-amino)butanoyl]amino]ethoxy]ethoxy]acetyl]amino]ethoxy]ethoxy]acetyl]amino]-ethylamino]-2-oxoethyl]-Ala[Gln121,Leu168,Cy … (protein)
chain: HPIPDSSPLLQFGGQVRQRYLYTDDAQQTEAHLEIREDGTVGGAADQSPESLLQLKALKPGVIQILGVKTSRFLCQRPDGALYGSLHFDPEACSFRELLLEDGYNVYQSEAHGLPLHLPGQKSPHRDPAPRGPARFLPLPGLPPALPEPPGILAPQPPDVGSSDPLSLVGPSQGRSPSYCS
In the case of B6, the “Mean Δ body weight (%)” value in series [1] (s.c. 1 mg/kg BID for 7 days) is −3.09* %; in series [1] (s.c. 1 mg/kg QD for 7 days), 1.85%. Besides, the EC50 came to 6.7 nM in series [2]; 6 nM in series [4] (absence of HSA, read-out: EC50); 6 nM in series [4] (setting [6]). In series [2], the “Glucose uptake Emax” value was found to be 106%. In series [5], this molecule came in with a Half-life mini pigs of 3 h. Besides, in series [3], the Half-life mice is 1 h.

B7: S{Beta-181}-[2-[2-[[2-[2-[2-[[2-[2-[2-[[(4S)-4-carboxy-4-(17-carboxyheptadecanoyl-amino)butanoyl]amino]ethoxy]ethoxy]acetyl]amino]ethoxy]ethoxy]acetyl]amino]-ethylamino]-2-oxoethyl]-Ala[Gln121,Leu168, … (protein)
chain: HPIPDSSPLLQFGGQVRQRYLYTDDAQQTEAHLEIREDGTVGGAADQSPESLLQLKALKPGVIQILGVKTSRFLCQRPDGALYGSLHFDPEACSFRELLLEDGYNVYQSEAHGLPLHLPGQKSPHRDPAPRGPARFLPLPGLPPALPEPPGILAPQPPDVGSSDPLSLVGPSQGRSPSYAC
Turning to B7, the EC50 in series [2] was determined as 56 nM; in series [4] (absence of HSA, read-out: EC50), 42 nM; in series [4] (setting [6]) it was 170 nM. In addition, in series [2], the “Glucose uptake Emax” value is reported as 73%. Also, the Half-life mini pigs in series [5] amounted to 85 h. In series [3], this molecule had a Half-life mice of 14 h.

Broadly, the EC50 is the midpoint of the concentration-response curve.
